Reference: US20030104443A1, “AFAP sequences, polypeptides, antibodies and methods” (University of West Virginia, priority 2001, published 2003)

How the values were obtained:
recombinant PKCα = molecular target: T1, recombinant PKCα (Homo sapiens, UniProt P17252); assay: In vitro PKC kinase assay; type: biochemical; details: 10 μg rAFAP-110, 0.5 μg PKCα, radiolabeled ATP; FIG. 10A
T1 construct: purchased CalBiochem
Method: PKC kinase assays were carried out according to Current Protocols in Molecular Biology (Carter, 1997). Briefly, 10 μg rAFAP-110 purified as mentioned above was incubated at 30° C. for 30 min with 0.5 μg recombinant PKCα in reaction buffer (20 mM Tris, pH 7.5, 5 mM MgCl2, 0.2 mM CaCl2, 20 μg/ml phosphatidylserine, and 2 μg/ml diolein) to which 1 μCi [γ-^32P]ATP was added. Reactions were analyzed by SDS-PAGE.

actin filaments [1] = assay: Low-speed cosedimentation assay (20,800×g), actin filament cross-linking; type: biochemical
Description: (§1) Binding constants were derived from the sedimentation of rAFAP-110 by actin. Accordingly, rAFAP-110 in the pellet and supernatant correspond to the bound and free rAFAP-110, respectively. The sum of densities of rAFAP-110 bands in the supernatant and pellet corresponds to the total mass of rAFAP-110 in the sample. The data representing the bound rAFAP-110 as a function of free rAFAP-110 were fit by nonlinear least squares to both the Langmuir (B=BMAX/(1+Kd/F)) and […] 2 μM F-actin filaments and different concentrations of rAFAP-110 in 5 mM MgCl2, 1 mM EGTA, 2 mM ATP, and 50 mM KCl at 20,800×g for 30 min at 4° C. After the centrifugation, both supernatant and pellets were analyzed by SDS-PAGE gel. Confocal microscopy assays were performed as described (Ishikawa et al., 1998, J. Biol. Chem., 273:26991-26997). Briefly, 2 μM F-actin containing 10% rhodamine-phalloidin-labeled F-actin were mixed with different concentrations of rAFAP-110 or other purified recombinant proteins in 5 mM MgCl2, 1 mM EGTA, 2 mM ATP, and 50 mM KCl at RT for 30 min. After the incubation, the reactions were applied between glass slides and coverslips and observed under confocal microscopy (Zeiss, Oberkochen, Germany). Samples for negative staining were adsorbed to grids coated with nitrocellulose and stabilized with carbon (Ernest F. Fullam, Latham, N.Y.). Unbound protein was removed by successive washes with buffer and water before staining with 1% uranylacetate (Cooper and Pollard, 1982, Methods Enzymol., 85(PtB), 182-210; Pollard and Cooper, 1982, Methods Enzymol., 85(PtB), 211-233).
Actin filaments are unable to efficiently pellet at 20,800×g unless cross-linked to form heavier particles (either isotropic networked or bundled actin filaments; Cooper and Pollard, 1982, supra; Pollard and Cooper, 1982, supra; Meyer et al., 1990, J. Cell. Biol. 110:2013-2024; Wachsstock et al., 1993, Biophys. J., 65: 205-214; Rybakova et al., 1996, J. Cell. Biol., 135:661-672). […] The purified recombinant proteins were incubated with actin filaments and then were centrifuged at 20,800×g. Both supernatants (S) and pellets (P) were applied to SDS-PAGE gel, followed by Coomassie staining. 1, rAFAP-110 with actin filaments; 2, rAFAP-110^Δcterm with actin filaments; 3, rAFAP-110 only; 4, rAFAP-110^Δcterm only; 5, actin filaments only. FIG. 8B is a graph of cross-linked actin filaments versus free rAFAP-110. rAFAP-110 at 0.05,0.11,0.21,0.43, 0.86, and 2.14 μM was incubated with the 2 μM concentration of G-actin polymerized into actin filaments. After the incubation, the reactions were centrifuged at 20,800×g. Both supernatants and pellets were applied to SDS-PAGE gel, followed by the Western blot analysis to detect rAFAP-110 and Coomassie blue staining to detect actin, respectively. The data of cross-linked actin filaments and free rAFA-110 were gathered by scanning densitometry of SDS-PAGE gel analysis.

actin filaments [2] = assay: Confocal microscopy of rhodamine-phalloidin-labeled actin filaments; type: biochemical
Description: as §1
To further test AFAP-110's capability to cross-link actin filaments, we analyzed rhodamine-phalloidin-labeled actin filaments for cross-linking by confocal microscopy. In FIG. 9A, purified rAFAP-110 or rAFAP-110^Δcterm were incubated with rhodamine-phalloidin-labeled actin filaments. […] 1, actin filaments only; 2, rAFAP-110 with actin filaments; 3, rAFAP-110^Δcterm with actin filaments. FIG. 9B presents confocal microscopy images. Different concentrations of α-actinin (top two panels, low=0.0625 μM and high=1.25 μM) and rAFAP-110 (bottom two panels, low=0.106 μM and high=2.1 μM) were incubated with rhodamine-phalloidin-labeled actin filaments. […] Actin filaments labeled with rhodamine-phalloidin appeared uniformly fluorescent in the absence of an actin binding protein (FIG. 9A1). […] Electron microscopy was used to confirm rAFAP-110's ability to cross-link actin filaments.

F-actin = assay: Actin binding assay (high-speed copelleting, 150,000×g)
Method: G-actin was polymerized to F-actin at 5 mM Tris-HCl, pH 8.0, 0.2 mM CaCl2, 0.5 mM DTT, 5 mM MgCl2, and 2 mM ATP at room temperature (RT) for 1 h. Different concentrations of rAFAP-110 were incubated with 2 μM F-actin in 5 mM MgCl2, 1 mM EGTA, 2 mM ATP, 50 mM KCl at RT for 30 min. The reactions were centrifuged at 150,000×g for 1 h at 4° C., and then both pellets and supernatants were collected and analyzed by SDS-PAGE gel.
as §1
The purified rAFAP-110 was incubated with actin filaments. The negative staining image was taken at 16,000 magnification. Black arrows indicate rAFAP-110 aggregates; and white arrow indicates actin filaments. […] The electron micrographs indicate that rAFAP-110 binds to the sides of actin filaments, which was supported by the fact that one mole of actin in filaments bound up to 1.7 mol of rAFAP-110 (FIG. 7C). FIG. 7C is a graph of bound rAFAP-110 versus free rAFAP-110. rAFAP-110 at 0.18,0.29,0.70, 1.34,2.63,3.73,4.67, 5.11,5.34,5.48, and 5.66 μM was incubated with 2 μM concentration of G-actin polymerized into actin filaments and were then centrifuged at 150,000×g. Both supernatants (S) and pellets (P) were applied to SDS-PAGE gel, followed by Coomassie staining. Density of AFAP-110 determined by scanning densitometry was fit as described.

[3] = least-squares fit to Hill equation, 2 μM actin, FIG. 8B
[4] = least-squares fit to Hill equation, 2 μM F-actin, FIG. 7C
[5] = second experiment, Hill equation

phosphorylation by PKCα in vitro (recombinant PKCα): phosphorylates
EC50 (actin filaments [1]; 2 μM actin, FIG. 8B, read-out: half maximal cross-linking): 260 nM
Kd (actin filaments [1]; least-squares fit to Hill equation, 2 μM actin, FIG. 8B, read-out: Kd (cross-linked actin filaments versus free rAFAP-110)): 260 nM
direct binding to actin filaments (F-actin; 150,000×g for 1 h, FIG. 7A): bind to actin filaments directly
rAFAP-110 bound per one mole of actin in filaments (F-actin; FIG. 7C): up to 1.7 mol
BMAX (F-actin; [4]): 4.2 µM
Kd (F-actin; [4]): 290 nM
BMAX (F-actin; [5]): 1.5 µM
Kd (F-actin; [5]): 240 nM
B1: rAFAP-110: Recombinant AFAP-110 purified after production as a GST bacterial fusion protein, using the PreScission Protease system (protein, UniProt Q90738 1-729, looked up)
Actin filament-associated …: MEELIVELRLFLELLDHEYLTSTVREKKAVITNILLRIQSSKGFEIKEHVQKPEVANSLPAPPQMPLPEIPQQWLPPDNGPPPLPTSSLPEGYYEEAVPVSPGKAPEYITSNYDSDAMSSSYESYDEEEEDGKGKKMRHQWPSEEASMDLVKDAKICAFLLRKKRFGQWTKLLCVIKENKLLCYKSSKDQQPQMELLLNDCSITYIPKDSKKKKHELKISHQGADALVLAVQSKEQAEQWLKVIKDVCSNCTGTVDSDGPLSSSPVHKTELEKKLSSERPSSDGEGAVENGITTVCNGKEQVKRKKSSKTEAKGTVTKVTGKKITKIIGLGKKKPSTDEQTSSAEEDVPTCGYLNVLSNNRWRERWCRVKDNKLIFHKDRTDLKTHIVSIPLRGCEVIPGLDSKHPLTFRLLRNGQEVAVLEASSSEDMGRWIGMLLAETGSSTDPGALHYDYIDVEMTASVIQAAKQTFCFMNRRVISTNPYRGSTANGYACPSGMALHYDDVPCINGSFKGKKPPATANGITGKVRTLNSQPKKPESVSCVKRTASNAEQYKYGKNRVEAVAKRLQSKEEELLKRKEALRNRLAQLRKERKDLRAAIEVNAGRKTQVILEDKLKKLEEECKTKEAERVNLELELTEVKESLKKALAGGITLGLAIEPKSGTSSPQSPIFKHRTLENSPISSCDTSDTECSIPVNSAAALKRPPSSNNSPCRGHVLRKAKEWEMKNGT
actin cross-linked and sedimented at saturation (actin filaments [1]; 1.63 μM/2.0 μM total actin): 81.5%
sedimentation of actin filaments at low speed (actin filaments [1]; 20,800×g, FIG. 8A): efficiently sedimented
BMAX (cross-linked actin filaments) (actin filaments [1]; [3]): 1.63 µM
n (Hill equation, cross-linking) (actin filaments [1]; [3]): 1.7
confocal fluorescence pattern of actin filaments (actin filaments [2]; FIG. 9A, rAFAP-110 at 1.3 μM): organized into a lacy pattern of swollen and interconnected fluorescent tubes
organization of actin filaments at low concentration (actin filaments [2]; α-actinin 0.0625 μM, rAFAP-110 0.105 μM, FIG. 9B): did not change the organization of actin filaments
organization of actin filaments at high concentration (actin filaments [2]; α-actinin 1.25 μM, rAFAP-110 2.1 μM, FIG. 9B): caused some aggregation of actin filaments into large branched structures
